Measured values as given in patent US20140336110A1.
Starred links: 1 amine or outer side, 2 acyl side, 3 side chain; linkers in the order of their positions; H or OH if unused. Non-standard residues stand in square brackets, D forms with d. Primed or numbered codes have the meaning given here. No end group written: not given here. *: point of attachment. PEG12 = NCCOCCOCCOCCOCCOCCOCCOCCOCCOCCOCCOCCOCCC(=O)O; Oic = O=C(O)[C@@H]1C[C@@H]2CCCC[C@@H]2N1; Dip = N[C@H](C(=O)O)C(c1ccccc1)c1ccccc1; Ida″ = O=C(CN(CC(=O)[*:3])[*:1])[*:2]; Palmitoyl = CCCCCCCCCCCCCCCC(=O)*; β3hF = N[C@H](CC(=O)O)Cc1ccccc1; NMeD = CN[C@@H](CC(=O)O)C(=O)O; β3hP = O=C(O)C[C@@H]1CCCN1; Ach = not defined here; Dpa = not defined here

target: ferroportin tagged at the C-terminus with green fluorescent protein [GFP: P42212]; test: cell-based or functional assay

Binder | EC50 (nM) in vitro [nM]
{Palmitoyl-PEG12}-FLCLP[Dip]HTD (not fully specified (C-terminus); printed as R4-F-L-C-L-P-Dpa-H-T-D; also: retroinverted, D residues underlined, underlining lost) [PR52] | < 10
{Palmitoyl-PEG12}-[Dip]ICIP[Dip]H (not fully specified (C-terminus); printed as R4-Dpa-I-C-I-P-Dpa-H; also: retroinverted, D residues underlined, underlining lost) [PR50] | < 10
{Palmitoyl-PEG12}-FICIP[Dip]HTD (not fully specified (C-terminus); printed as R4-F-I-C-I-P-Dpa-H-T-D; also: retroinverted, D residues underlined, underlining lost) [PR47] | 50
[NMeD]TH[Dpa][β3hP]ICI[β3hF] (reading uncertain; also: R14 = Palmitoyl-PEG-miniPEG3- substituent, attachment not placed) [PR54] | 10
{Palmitoyl-PEG12}-FICIP[Dip]H (not fully specified (C-terminus); printed as R4-F-I-C-I-P-Dpa-H; also: retroinverted, D residues underlined, underlining lost) [PR49] | < 10
[NMeD]TH[Dpa]PICI[β3hF] (reading uncertain; also: R14 = Palmitoyl-PEG-miniPEG3- substituent, attachment not placed) [PR53] | 10
{Palmitoyl-PEG12}-[Dip]ICIP[Dip]HTD (not fully specified (C-terminus); printed as R4-Dpa-I-C-I-P-Dpa-H-T-D; also: retroinverted, D residues underlined, underlining lost) [PR48] | 50
{Palmitoyl-PEG12}-FVCVP[Dip]HTD (not fully specified (C-terminus); printed as R4-F-V-C-V-P-Dpa-H-T-D; also: retroinverted, D residues underlined, underlining lost) [PR51] | 100

Second part, the binder after the results:

EC50 (nM) in vitro [nM] | Binder
2 | [Ida″]TH[Dpa][β3hP]ICI[β3hF] (reading uncertain; also: R14 = Palmitoyl-PEG-miniPEG3- substituent, attachment not placed) [PR59]
10 | [NMeD]TH[Dpa]P[Ach]C[Ach]F (reading uncertain; also: R14 = Palmitoyl-PEG-miniPEG3- substituent, attachment not placed) [PR55]
15 | [NMeD]TH[Dpa][Oic]RCR[β3hF] (reading uncertain; also: R14 = Palmitoyl-PEG-miniPEG3- substituent, attachment not placed) [PR56]
2 | [NMeD]TH[Dpa][β3hP]RCR[β3hF] (reading uncertain; also: R14 = Palmitoyl-PEG-miniPEG3- substituent, attachment not placed) [PR57]
3 | [Ida″]TH[Dpa]P[Ach]C[Ach]F (reading uncertain; also: R14 = Palmitoyl-PEG-miniPEG3- substituent, attachment not placed) [PR60]
1 | [Ida″]TH[Dpa]PICI[β3hF] (reading uncertain; also: R14 = Palmitoyl-PEG-miniPEG3- substituent, attachment not placed) [PR58]

target: ferroportin tagged at the C-terminus with green fluorescent protein [GFP: P42212]; test: cell-based or functional assay; remark: another data set of the same source

relative hepcidin activity (FIG. 1) [% decrease] | potency against Hep25 on a mass basis, flow-cytometry assay of ferroportin-GFP internalization (times less potent than Hep25) | potency against Hep25 on a molar basis, flow-cytometry assay of ferroportin-GFP internalization (times less potent than Hep25) | Binder
> 70 | – | – | DTHFPICIACCGCCHRSKCGMCCKT [Hep25 F9A]
> 70 | – | – | DTHAPICIFCCGCCHRSKCGMCCKT [Hep25 F4A]
– | 4 | 10 | DTHFPIAIFC-NH2 [Hep10 (Hep1-10 C7A)]
– | 4 | 10 | DTHFPICIF-NH2 [Hep9 (Hep1-9)]
